Earlier results on 1 substance are cited in PMC6962051.

The series concerns the target linear di-ubiquitin (Homo sapiens) (UniProt P0CG47). The experiment in a line: isothermal titration calorimetry. (Isothermal titration calorimetry measures the heat released or taken up as one component is titrated into another.)

Sequence of NEMO CoZi (Q9Y6K9 258-350): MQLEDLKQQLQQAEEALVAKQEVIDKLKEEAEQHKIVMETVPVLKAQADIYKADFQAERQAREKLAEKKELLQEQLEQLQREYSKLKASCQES

In the case of NEMO CoZi (from UniProt Q9Y6K9), the Kd was 2.4 µM.

For orientation: Kd means a measure of binding affinity in units of concentration.
